Assay results reported in publication PMC4403819.

Biological target: T1, OmpR-His6 non-phosphorylated (Yersinia enterocolitica Ye9 (O:9)?) (UniProt P74982)
T1 sequence: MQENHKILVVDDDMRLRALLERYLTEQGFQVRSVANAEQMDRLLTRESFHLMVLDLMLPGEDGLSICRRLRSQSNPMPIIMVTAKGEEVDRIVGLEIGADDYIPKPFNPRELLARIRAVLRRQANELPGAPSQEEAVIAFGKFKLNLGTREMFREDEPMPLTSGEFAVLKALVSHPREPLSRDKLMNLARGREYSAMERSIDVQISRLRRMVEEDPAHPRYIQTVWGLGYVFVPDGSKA
Test: EMSA
Details: Binding buffer, pH and temperature not given ([…]

## TGGAATTCATTGCAGCCAGAGGCATTACCCCTCTGTTTTTGCTCATAGATAAACCTCAAGTGTCCGATTTTTAATTTAATTCAATGGATCACAAGCTTTAAAACCCATTGCTGCGTAAATTATATGTGCGTGCTATGGTACATACATTCGTGAATGTATGTAAATCGCACCCCCTCGAAAAAACAACGCTATGGCACGAAAAACCAAACAGCAAGGTACCCA (double strand) [acrR promoter fragment p222]
  binding: binds more weakly
